Source: PMC11677724, “Preclinical Study of a Dual-Target Molecular Probe Labeled with ^68Ga Targeting SSTR2 and FAP” (Pharmaceuticals, 2024)
Like-named read-outs stand apart in the source and are kept apart here.

Key:
[1] = In vitro stability in physiological saline/PBS or FBS, radio-HPLC; assay type: in vitro ADME; conditions: 1.85 MBq in 5 µL, 37 °C, 2 h
Method: A measure of 5 µL of [^68Ga]Ga-TATE-46 (1.85 MBq) was added to 300 µL of PBS or FBS and incubated at 37 °C for 2 h. Subsequently, the radiochemical purity was determined using HPLC.

[2] = Micro PET imaging with ROI quantification, MC38 tumor-bearing mice; assay type: in vivo; conditions: female, BALB/c nude, mouse, iv, total radioactivity, 1 h p.i., 5.55–7.4 MBq tail vein, MC38 tumors (SSTR2/FAP, negative), read-out: uptake in MC38 tumors (ROI quantitative analysis of PET images)
Method: (§1) Female BALB/c nude mice were obtained from Charles River Laboratories (Beijing, China). […] Approximately 5 × 10^6 cells were implanted into the right shoulder of each mouse to establish an NCI-H727 tumor model and Mc38 tumor model. Once the tumor volume reached 200–300 mm^3, the mice were used for imaging or biodistribution studies. All animal experiments were carried out in accordance with the National Institutes of Health Guidelines for the Care and Use of Laboratory Animals and were approved by the Animal Protection and Utilization Committee of the General Hospital of the PLA (Approval No.: S2023-209-1).
Each set of NCI-H727 tumor xenograft models (n = 3) was administered with [^68Ga]Ga-TATE-46, [^68Ga]Ga-DOTA-TATE, or [^68Ga]Ga-FAPI-46 (5.55–7.4 MBq, 150 µL/mouse) through the tail vein. Static PET scans were performed at 30 min, 1 h, 2 h, and 4 h after injection for 10 min each. In blocking studies, unlabeled precursors (FAPI-46, DOTA-TATE, FAPI-46 + DOTA-TATE, 10 mg/kg) were co-injected with [^68Ga]Ga-TATE-46. After image acquisition, the images were reconstructed using the three-dimensional ordered subset expectation maximization (3D-OSEM) algorithm and analyzed on the Recon/Avator-s-10 workstation. The percentage of injected dose per gram of tissue (%ID/g) was determined by delineating regions of interest.

[3] = system: MC38 cells (SSTR2/FAP, negative); test: Cell uptake in MC38 cells (negative control); assay type: cell-based; conditions: 1.48×10^4 Bq/well, all time points, all p < 0.001
Method: The NCI-H727 and Mc38 cell lines were supplied by the Stem Cell Bank of the Chinese Academy of Sciences and were cultivated in Roswell Park Memorial Institute (RPMI-1640) medium with 10% (v/v) fetal bovine serum (FBS) at 37 °C with 5% CO2. All cells were cultured until they reached 80–90% confluence before undergoing trypsinization.
In blocking experiments, an excessive amount of unlabeled FAPI-46, DOTA-TATE, or FAPI-46 + DOTA-TATE (10 µg/well) was added as an inhibitor along with [^68Ga]Ga-TATE-46 to the cells. After 1 h, the cells were processed using the same method. Finally, the cell lysates were gathered, and the radioactivity was measured using a γ-counter. Mc38 cells were used as a negative control, with only [^68Ga]Ga-TATE-46 (1.48 × 10^4 Bq/well, 100 µL) added, and the rest of the procedure was followed as described above.

[4] = system: NCI-H727 tumor-bearing mice; test: Ex vivo biodistribution in NCI-H727 tumor-bearing mice; conditions: biodistribution in NCI-H727 tumor-bearing mice
Method: as §1
(§2) The NCI-H727 tumor-bearing mice were randomly assigned to four groups (with three mice in each group) and were injected with [^68Ga]Ga-TATE-46 (1.48 MBq, 100 µL). The mice were put to death at 0.5, 1, 2, and 4 h post-injection (p.i.). The tissues and organs of concern were gathered, weighed, and measured for radioactivity using a γ-counter. Additionally, [^68Ga]Ga-DOTA-TATE and [^68Ga]Ga-FAPI-46 were used as control groups in the biodistribution study of the NCI-H727 tumor model at 1 h p.i. After performing time decay correction, the radiotracer uptake in each tissue and organ was calculated as %ID/g.

[5] = as above; conditions: female, BALB/c nude, mouse, in vivo, 1.48 MBq, total radioactivity, γ-counter, mean ± SD, n=3; for tissue uptake at 0.5 h: 0.5 h p.i.; for tissue uptake at 1 h: 1 h p.i.; for tissue uptake at 2 h: 2 h p.i.; for tissue uptake at 4 h: 4 h p.i.
Method: as §1, §2

[6] = NCI-H727 tumor, read-out: Biodistribution, Tumor (tumor uptake)
[7] = NCI-H727 tumor-bearing mice, read-out: Biodistribution, Blood
[8] = NCI-H727 tumor-bearing mice, read-out: Biodistribution, Bone
[9] = NCI-H727 tumor-bearing mice, read-out: Biodistribution, Brain
[10] = NCI-H727 tumor-bearing mice, read-out: Biodistribution, Heart
[11] = NCI-H727 tumor-bearing mice, read-out: Biodistribution, Intestine
[12] = NCI-H727 tumor-bearing mice, read-out: Biodistribution, Kidney
[13] = NCI-H727 tumor-bearing mice, read-out: Biodistribution, Liver
[14] = NCI-H727 tumor-bearing mice, read-out: Biodistribution, Lung
[15] = NCI-H727 tumor-bearing mice, read-out: Biodistribution, Muscle
[16] = NCI-H727 tumor-bearing mice, read-out: Biodistribution, Spleen
[17] = NCI-H727 tumor-bearing mice, read-out: Biodistribution, Stomach

Q: What does the source list for `C[C@@H](O)[C@H](NC(=O)[C@@H]1CSSC[C@H](NC(=O)[C@@H](Cc2ccccc2)NC(=O)CCCCCNC(=O)CCCCCNC(=O)[C@H](Cc2ccccc2)NC(=O)C(CCC(=O)N[C@@H](Cc2ccccc2)C(=O)NCCCCCC(=O)NCCCCCC(=O)N2CCN(CCCN(C)c3ccc4nccc(C(=O)NCC(=O)N5CC(F)(F)C[C@H]5C#N)c4c3)CC2)NC(=O)CN2CCN(CC(=O)O)CCN(CC(=O)O)CCN(CC(=O)O)CC2)C(=O)N[C@@H](Cc2ccc(O)cc2)C(=O)N[C@H](Cc2c[nH]c3ccccc23)C(=O)N[C@@H](CCCCN)C(=O)N[C@@H]([C@@H](C)O)C(=O)N1)C(=O)O` (some centres unmarked) [[^68Ga]Ga-TATE-46, metal not drawn]?
A: In vitro stability in FBS (HPLC chromatogram) ([1]; 300 µL FBS): only one peak; In vitro stability in physiological saline (HPLC chromatogram) ([1]; physiological saline (method: 300 µL PBS)): only one peak; tissue uptake at 1 h [2]: 2.05 ± 0.09 %ID/g; cellular uptake in MC38 cells compared to NCI-H727 cells [3]: significantly lower; tumor/muscle ratio [4]: 3–4; tissue uptake at 0.5 h [5, 6]: 3.56 ± 0.69 %ID/g; tissue uptake at 0.5 h [5, 7]: 13.5 ± 2.03 %ID/g; tissue uptake at 0.5 h [5, 8]: 4.84 ± 0.25 %ID/g; tissue uptake at 0.5 h [5, 9]: 0.37 ± 0.06 %ID/g; tissue uptake at 0.5 h [5, 10]: 4.71 ± 0.3 %ID/g; tissue uptake at 0.5 h [5, 11]: 4.58 ± 2.16 %ID/g; tissue uptake at 0.5 h [5, 12]: 23.9 ± 8.92 %ID/g; tissue uptake at 0.5 h [5, 13]: 10 ± 2.51 %ID/g; tissue uptake at 0.5 h [5, 14]: 7.03 ± 1.58 %ID/g; tissue uptake at 0.5 h [5, 15]: 2.4 ± 0.48 %ID/g; tissue uptake at 0.5 h [5, 16]: 4.48 ± 0.72 %ID/g; tissue uptake at 0.5 h [5, 17]: 6.84 ± 0.73 %ID/g; tissue uptake at 1 h [5, 6]: 7.53 ± 1.13 %ID/g; tissue uptake at 1 h [5, 7]: 11.3 ± 2.53 %ID/g; tissue uptake at 1 h [5, 8]: 4.8 ± 1.08 %ID/g; tissue uptake at 1 h [5, 9]: 0.36 ± 0.03 %ID/g; tissue uptake at 1 h [5, 10]: 4.15 ± 0.83 %ID/g; tissue uptake at 1 h [5, 11]: 3.74 ± 0.72 %ID/g; tissue uptake at 1 h [5, 12]: 37 ± 3.89 %ID/g; tissue uptake at 1 h [5, 13]: 10.5 ± 2.84 %ID/g; tissue uptake at 1 h [5, 14]: 5.51 ± 0.97 %ID/g; tissue uptake at 1 h [5, 15]: 2.39 ± 0.49 %ID/g; tissue uptake at 1 h [5, 16]: 4.01 ± 0.79 %ID/g; tissue uptake at 1 h [5, 17]: 6.68 ± 0.95 %ID/g; tissue uptake at 2 h [5, 6]: 7.08 ± 0.88 %ID/g; tissue uptake at 2 h [5, 7]: 6.13 ± 0.61 %ID/g; tissue uptake at 2 h [5, 8]: 4.65 ± 0.87 %ID/g; tissue uptake at 2 h [5, 9]: 0.23 ± 0.04 %ID/g; tissue uptake at 2 h [5, 10]: 2.41 ± 0.35 %ID/g; tissue uptake at 2 h [5, 11]: 2.85 ± 1.12 %ID/g; tissue uptake at 2 h [5, 12]: 26.5 ± 4.77 %ID/g; tissue uptake at 2 h [5, 13]: 8.4 ± 0.12 %ID/g; tissue uptake at 2 h [5, 14]: 3.67 ± 0.68 %ID/g; tissue uptake at 2 h [5, 15]: 2.36 ± 0.14 %ID/g; tissue uptake at 2 h [5, 16]: 3.05 ± 0.38 %ID/g; tissue uptake at 2 h [5, 17]: 6.18 ± 0.43 %ID/g; tissue uptake at 4 h [5, 6]: 6.48 ± 1.82 %ID/g; tissue uptake at 4 h [5, 7]: 4.09 ± 0.21 %ID/g; tissue uptake at 4 h [5, 8]: 4.49 ± 0.06 %ID/g; tissue uptake at 4 h [5, 9]: 0.24 ± 0.02 %ID/g; tissue uptake at 4 h [5, 10]: 1.9 ± 0.09 %ID/g; tissue uptake at 4 h [5, 11]: 1.82 ± 1.11 %ID/g; tissue uptake at 4 h [5, 12]: 22.4 ± 6.23 %ID/g; tissue uptake at 4 h [5, 13]: 8.08 ± 0.87 %ID/g; tissue uptake at 4 h [5, 14]: 2.69 ± 0.17 %ID/g; tissue uptake at 4 h [5, 15]: 2.36 ± 0.32 %ID/g; tissue uptake at 4 h [5, 16]: 3.04 ± 0.09 %ID/g; tissue uptake at 4 h [5, 17]: 5.05 ± 0.01 %ID/g
